Reference: article PMC10484793

Assays:
C17orf80 [1] = molecular target: T1, C17orf80 (Homo sapiens, UniProt Q9BSJ5 1-609); test: EMSA
C17orf80 [2] = molecular target: T1, C17orf80; test: EMSA; remark: listed apart in the source

T1 sequence (Q9BSJ5 whole entry): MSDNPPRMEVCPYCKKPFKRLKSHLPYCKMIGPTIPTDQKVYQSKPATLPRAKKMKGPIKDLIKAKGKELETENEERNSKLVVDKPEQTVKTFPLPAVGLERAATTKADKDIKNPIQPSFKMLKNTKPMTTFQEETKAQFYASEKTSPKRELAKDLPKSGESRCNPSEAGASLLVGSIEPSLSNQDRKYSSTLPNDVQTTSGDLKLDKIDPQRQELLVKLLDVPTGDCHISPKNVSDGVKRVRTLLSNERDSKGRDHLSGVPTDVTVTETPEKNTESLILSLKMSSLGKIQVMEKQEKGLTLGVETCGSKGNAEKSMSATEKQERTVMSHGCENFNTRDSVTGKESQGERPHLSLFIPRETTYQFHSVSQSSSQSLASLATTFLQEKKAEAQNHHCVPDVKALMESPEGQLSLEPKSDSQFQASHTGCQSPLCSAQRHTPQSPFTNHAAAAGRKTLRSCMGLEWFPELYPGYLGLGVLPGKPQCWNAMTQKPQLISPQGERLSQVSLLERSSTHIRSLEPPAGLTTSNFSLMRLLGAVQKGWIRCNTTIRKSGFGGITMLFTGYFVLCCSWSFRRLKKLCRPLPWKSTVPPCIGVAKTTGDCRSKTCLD

Row | Binder | Kd (C17orf80 [1]) | binding result (C17orf80 [2])
1 | mito dsDNA (dsDNA) DNA 1: TACTCCTCAATTACCCACATAGGATGAATAATAGCAGTTCTACCGTACAA DNA 2: TTGTACGGTAGAACTGCTATTATTCATCCTATGTGGGTAATTGAGGAGTA | 46 ± 7 nM | 
2 | TACTCCTCAATTACCCACATAGGATGAATAATAGCAGTTCTACCGTACAA (ssDNA) [mito ssDNA] |  | no binding
3 | nuc dsDNA (dsDNA) DNA 1: TTTATTTCTGAGACGGGGTCTTGTGTTGCCCAGGCTGGAGTGTAATGGCA DNA 2: TGCCATTACACTCCAGCCTGGGCAACACAAGACCCCGTCTCAGAAATAAA | 49 ± 3 nM | 
